The record followed here is publication PMC6035275, “Structures of DNA-bound human ligase IV catalytic core reveal insights into substrate binding and catalysis”.

Series [1] has as its target T1, DNA ligase IV catalytic domain (lysyl-AMP at K273 in open complex) (human, UniProt P49917 1-620).
T1 sequence: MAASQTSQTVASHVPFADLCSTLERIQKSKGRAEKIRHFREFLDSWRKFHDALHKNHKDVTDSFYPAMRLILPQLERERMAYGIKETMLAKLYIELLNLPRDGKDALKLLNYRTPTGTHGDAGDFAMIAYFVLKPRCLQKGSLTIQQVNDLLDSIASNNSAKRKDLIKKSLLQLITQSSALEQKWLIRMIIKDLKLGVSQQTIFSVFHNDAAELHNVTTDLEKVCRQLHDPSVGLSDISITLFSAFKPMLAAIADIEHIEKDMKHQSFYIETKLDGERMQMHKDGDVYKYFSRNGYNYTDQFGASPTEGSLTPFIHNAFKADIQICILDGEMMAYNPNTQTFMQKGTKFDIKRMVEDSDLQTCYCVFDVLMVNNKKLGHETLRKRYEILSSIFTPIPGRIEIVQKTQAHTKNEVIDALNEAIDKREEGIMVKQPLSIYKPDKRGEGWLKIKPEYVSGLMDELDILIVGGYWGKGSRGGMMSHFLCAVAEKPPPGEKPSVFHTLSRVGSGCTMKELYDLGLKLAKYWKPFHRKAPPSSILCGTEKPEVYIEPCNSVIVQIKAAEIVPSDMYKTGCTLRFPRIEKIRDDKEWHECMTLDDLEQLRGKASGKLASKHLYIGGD
The experiment in a line: X-ray crystallography; lysyl-AMP (K273), open conformation, 10 mM MgCl2; 3.25 A; Crystals: protein pre-incubated with 4 mM MgCl2, 1 mM ATP, 1 h on ice, DNA added at 2:1 molar ratio, 1 h on ice; HEPES pH 7.5 (77-79 mM), ~7.8% isopropanol, ~15.5% PEG4000, ~13.6% glycerol, +/- 10 mM MgCl2, room temperature. Mutants only tested by ligation turnover (no binding read-out). To be noted: protein: recombinant; tags: 6xHis-SUMO, removed with Ulp1; nicked duplex, 18 bp, blunt ends; nick between strand 2 (11 nt) and strand 3 (7 nt).

For series [2], the target named is T1, DNA ligase IV catalytic domain …. Kind of series: X-ray crystallography; DNA-adenylate, closed conformation, no metal bound; Crystals: protein pre-incubated with 4 mM MgCl2, 1 mM ATP, 1 h on ice, DNA added at 2:1 molar ratio, 1 h on ice; HEPES pH 7.5 (77-79 mM), ~7.8% isopropanol, ~15.5% PEG4000, ~13.6% glycerol, +/- 10 mM MgCl2, room temperature. Mutants only tested by ligation turnover (no binding read-out). To be noted: protein: recombinant; tags: 6xHis-SUMO, removed with Ulp1; nicked duplex, 18 bp, blunt ends; nick between strand 2 (11 nt) and strand 3 (7 nt).

B1: nicked DNA duplex (crystal), 5'-phosphate downstream primer (dsDNA)
DNA 1: GTCCGACGACGCATCAGC
DNA 2: GCTGATGCGTC
DNA 3: GTCGGAC
modifications: upstream primer 3'-dideoxycytidine; downstream primer 5'-phosphate
On to B1, for which the binding result in series [1] is recorded as “binds”.

B2: nicked DNA-adenylate duplex (crystal), 5'-AMP downstream primer (dsDNA)
DNA 1: GTCCGACGACGCATCAGC
DNA 2: GCTGATGCGTC
DNA 3: GTCGGAC
modifications: upstream primer 3'-dideoxycytidine; downstream primer 5'-adenylated (AMP-p, transferred from K273 in the complex)
On to B2, for which the binding result in series [2] was “binds”.
